Assay results reported in publication PMC8144572.

Target: truncated NpSRII/NpHtrII137 complex (Natronomonas pharaonis) (UniProt P42196)
Test: SAXS; detergent-solubilised (DDM) complex, peak fractions after gel filtration; low salt (150 mM NaCl); 0.57 mg/ml full-length and 0.78 mg/ml truncated complex; BM29 (ESRF); curves fitted with atomistic dimer models with a detergent belt (MEMPROT, CRYSOL3)

truncated NpSRII/NpHtrII137 complex, sequence (P42196 whole entry, the tested form may be a part): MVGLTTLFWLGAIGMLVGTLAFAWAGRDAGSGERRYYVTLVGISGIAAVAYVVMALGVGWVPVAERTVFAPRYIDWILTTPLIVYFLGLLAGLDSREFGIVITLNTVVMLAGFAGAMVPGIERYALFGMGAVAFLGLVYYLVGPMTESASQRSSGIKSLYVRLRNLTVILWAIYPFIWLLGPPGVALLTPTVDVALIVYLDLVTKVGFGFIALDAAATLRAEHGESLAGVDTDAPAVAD
truncated NpSRII/NpHtrII137 complex, sequence (P42259 1-136): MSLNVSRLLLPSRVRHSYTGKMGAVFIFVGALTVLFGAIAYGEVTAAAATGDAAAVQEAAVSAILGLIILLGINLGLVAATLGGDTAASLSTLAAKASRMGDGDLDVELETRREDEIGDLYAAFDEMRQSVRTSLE

stoichiometry N: 2
Substance: truncated NpSRII/NpHtrII137 complex (from UniProt P42196 1-239; P42259 1-136)
